Earlier results on one molecule are cited in publication PMC5487681, “Identification of Antifungal H^+-ATPase Inhibitors with Effect on Plasma Membrane Potential” (Antimicrobial Agents and Chemotherapy, 2017).

In the series the test system is C. albicans cells. Further details: method as in PMID 27139463.

B1: lactoferrin: immunoprotein that inhibits Pma1 (protein, UniProt P02788 20-710, looked up)
Lactotransferrin: GRRRSVQWCAVSQPEATKCFQWQRNMRKVRGPPVSCIKRDSPIQCIQAIAENRADAVTLDGGFIYEAGLAPYKLRPVAAEVYGTERQPRTHYYAVAVVKKGGSFQLNELQGLKSCHTGLRRTAGWNVPIGTLRPFLNWTGPPEPIEAAVARFFSASCVPGADKGQFPNLCRLCAGTGENKCAFSSQEPYFSYSGAFKCLRDGAGDVAFIRESTVFEDLSDEAERDEYELLCPDNTRKPVDKFKDCHLARVPSHAVVARSVNGKEDAIWNLLRQAQEKFGKDKSPKFQLFGSPSGQKDLLFKDSAIGFSRVPPRIDSGLYLGSGYFTAIQNLRKSEEEVAARRARVVWCAVGEQELRKCNQWSGLSEGSVTCSSASTTEDCIALVLKGEADAMSLDGGYVYTAGKCGLVPVLAENYKSQQSSDPDPNCVDRPVEGYLAVAVVRRSDTSLTWNSVKGKKSCHTAVDRTAGWNIPMGLLFNQTGSCKFDEYFSQSCAPGSDPRSNLCALCIGDEQGENKCVPNSNERYYGYTGAFRCLAENAGDVAFVKDVTVLQNTDGNNNEAWAKDLKLADFALLCLDGKRKPVTEARSCHLAMAPNHAVVSRMDKVERLKQVLLHQQAKFGRNGSDCPDKFCLFQSETKNLLFNDNTECLARLHGKTTYEKYLGPQYVAGITNLKKCSTSPLLEACEFLRK
As for B1, the “Increase in iATP levels, C. albicans” value is greater than 600%.
